Test [1] in a line: P450BM3 compilation plate screen (GC, cyclopropane peaks). The settings on record: P450BM3 variants. It counts as biochemical.
The nature of test [2]: N—H insertion, aniline with ethyl diazo acetate (EDA). It counts as biochemical. The settings on record: protein 10 uM, EDA 8.5 mM, aniline 20 mM, Na2S2O4 10 mM, 12 h. The source says:
We have found a variety of P450 variants to be general catalysts for carbenoid N—H insertion. We combined aniline with EDA in the presence of a reductant (Na2S2O4) under argon atmosphere and tested the mixture with seven P450BM3 variants previously identified as competent catalysts for cyclopropanation (Coelho, P. et al., Science. 2013, 339, 307-310). In choosing this set of P450s, we hypothesized that cyclopropanation activity could correlate with ability to generate the iron-carbenoid intermediate that is also necessary for N—H insertion. Whereas wild type BM3 (WT-BM3 (SEQ ID NO:1), Table 20, entry 1) provided only trace amounts of the desired product (4.3), a few variants gave 4.3 in good yields after 12 h at room temperature. In particular, variant H2-5-F10 which is derived from a thermostable P450BM3 lineage (Lewis, J. C. et al. ChemBioChem, 2010, 11, 2502-2505) and contains 15 mutation from WT-BM3 (SEQ ID NO:1), formed 4.3 in 47% yield and 473 turnovers (TTN) using 0.1% protein relative to EDA (entry 7). […] In contrast, when 1 mol % of the isolated hemin prosthetic group was used as catalyst, the single and double insertion products were produced in a 3.5 to 1 ratio (with a total product yield of 51%).
A representative procedure for P450-catalyzed N—H insertion is as follows. To an unsealed crimp vial, 60 μL of a P450 solution (67 or 133 μM) was added and the vial was sealed. A 12.5 mM solution of sodium dithionite in phosphate buffer (0.1 M, pH=8.0) was degassed by bubbling with argon in a 6 mL crimp-sealed vial. The headspace of the 2 mL vials containing P450 solution were flushed with argon (no bubbling). The buffer/dithionite solution (360 μL) was then added to each reaction vial via syringe, and the gas lines were disconnected from the vials. 10 μL of an 800 mM stock of aniline was added via a glass syringe, followed by 10 μL of a 340 mM stock of EDA (both stocks in MeOH). The reaction vials were then placed in a tray on a plate shaker and left to shake at 40 rpm. The final concentrations of the reagents were typically: 20 mM aniline, 8.5 mM EDA, 10 mM Na2S2O4, and 10 or 20 μM P450. After 12 h at 25° C., the vials were removed from the shaker and uncapped and 1 mL of cyclohexane was added, followed by 20 μL of a 20 mM solution of phenethyl alcohol (internal standard). The mixture was transferred to a 1.5 mL Eppendorf tube and vortexed and centrifuged (13,000×g, 1 min.). The organic layer was dried over sodium sulfate if necessary then analyzed by GC, with comparison to an authentically prepared sample that has been verified by proton NMR ([…], Varian, CDCl3).
Substitution is well-tolerated on the aniline partner on both the ortho and para positions. Reactions were analyzed by a Shimadzu GC with FID detector and J&W HP-5 column (30 m×0.32 mm, 0.25 μm film) and calibrated to an independently prepared sample of each product using phenethyl alcohol as internal standard. Reaction of aniline and EDA was also performed in milligram scale without any organic cosolvent to provide 4.3 in 65% isolated yield.
Calibration curves were plotted as follows. Yields of N—H insertion products were determined using calibration curves made with independently synthesized standards that have been verified by proton NMR, with comparison to known literature data (Baumann, L. K. et al. Organometallics. 2007, 26, 3995-4002; Anding, B. J. et al. Organometallics. 2013, 32, 2599-2607). Two stock solutions of product were made at 160 mM and 40 mM. To four or five samples containing 380 μL of buffer, product was added from either of the stock solutions such at a final concentration of 0.5-8.0 mM in 400 μL was obtained. 20 μL of internal standard was added to each eppendorf tube, then 1 mL of cyclohexane was added and the tubes were vortexed and centrifuged (13,000 ×g, 30 seconds). The organic layer was then analyzed by GC. The ratio of the areas under the internal standard and product peaks were plotted against the concentration for each solution. […]

B1: H2A10: 9-10A TS + F87V, L75A, L181A, T268A (protein, listed as Bacillus megaterium)
chain: TIKEMPQPKTFGELKNLPLLNTDKPVQALMKIADELGEIFKFEAPGRVTRYLSSQRLIKEACDESRFDKNLSQAAKFARDFAGDGLVTSWTHEKNWKKAHNILLPSFSQQAMKGYHAMMVDIAVQLVQKWERLNADEHIEVSEDMTRLTLDTIGLCGFNYRFNSFYRDQPHPFIISMVRAADEVMNKLQRANPDDPAYDENKRQFQEDIKVMNDLVDKIIADRKARGEQSDDLLTQMLNGKDPETGEPLDDGNIRYQIITFLIAGHEATSGLLSFALYFLVKNPHVLQKVAEEAARVLVDPVPSYKQVKQLKYVGMVLNEALRLWPTAPAFSLYAKEDTVLGGEYPLEKGDEVMVLIPQLHRDKTVWGDDVEEFRPERFENPSAIPQHAFKPFGNGQRACIGQQFALHEATLVLGMMLKHFDFEDHTNYELDIKETLTLKPKGFVVKAKSKKIPLGGIPSPSTEQSAKKVRKKAENAHNTPLLVLYGSNMGTAEGTARDLADIAMSKGFAPQVATLDSHAGNLPREGAVLIVTASYNGHPPDNAKQFVDWLDQASADEVKGVRYSVFGCGDKNWATTYQKVPAFIDETLAAKGAENIADRGEADASDDFEGTYEEWREHMWSDVAAYFNLDIENSEDNKSTLSLQFVDSAADMPLAKMHGAFSTNVVASKELQQPGSARSTRHLEIELPKEASYQEGDHLGVIPRNYEGIVNRVTARFGLDASQQIRLEAEEEKLAHLPLAKTVSVEELLQYVELQDPVTRTQLRAMAAKTVCPPHKVELEALLEKQAYKEQVLAKRLTMLELLEKYPACEMKFSEFIALLPSIRPRYYSISSSPRVDEKQASITVSVVSGEAWSGYGEYKGIASNYLAELQEGDTITCFISTPQSEFTLPKDPETPLIMVGPGTGVAPFRGFVQARKQLKEQGQSLGEAHLYFGCRSPHEDYLYQEELENAQSEGIITLHTAFSRMPNQPKTYVQHVMEQDGKKLIELLDQGAHFYICGDGSQMAPAVEATLMKSYADVHQVSEADARLWLQQLEEKGRYAKDVWAG
modifications: cytochrome P450NADPH-P-450 reductase precursor, cytochrome P450 (BM3), CYP102A1
notes: 9-10A TS + F87V, L75A, L181A, T268A
Consider B1, for which the “ee (cis)” value in test [1] ((R,S)-(S,R), chiral β-CDX GC) is reported as −94. For the same molecule, the de in test [1] (diastereomeric excess = ([cis] − [trans])/([cis] + [trans])) is −8. The Absolute activity in test [1] (sum of the area of the cyclopropane peaks over the area of the internal standard) was found to be 0.06642. Moreover, the TTn in test [2] amounted to 238. The “% Yield” value in test [2] (product 4.3) is on record as 24%.

For the origin of these results see patent US20150267232A1, “IN VIVO AND IN VITRO CARBENE INSERTION AND NITRENE TRANSFER REACTIONS CATALYZED BY HEME ENZYMES” (California Institute of Technology, priority 2012, published 2015).
